The values that follow come from patent US20170081400A1 (CEPHALON, published 2017).

T1: human TL1A extracellular domain with N-terminal HIS and FLAG tag (human, UniProt O95150 72-251)
T1 construct: whole entry named. ~70 kDa fraction purified by gel filtration
T1 sequence: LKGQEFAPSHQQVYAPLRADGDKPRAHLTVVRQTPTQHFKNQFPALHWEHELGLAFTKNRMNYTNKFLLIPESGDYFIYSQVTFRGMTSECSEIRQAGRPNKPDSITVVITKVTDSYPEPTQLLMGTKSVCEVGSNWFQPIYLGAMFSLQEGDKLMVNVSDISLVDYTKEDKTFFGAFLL

B1: 320-192 (antibody, human IgG1, name in Kabat numbering, V domains shown)
VH: QVQLVQSGAEVKKPGASVKVSCKASGYTFTSYDINWVRQAPGQGLEWMGWLNPNSGNTGYAQKFQGRVTMTADRSTSTAYMELSSLRSEDTAVYYCAREVPETAAFEYWGQGTLVTVSS
VL: QSVLTQPPSVSGAPGQRVTISCASSSSDIGAGLGVHWYQQLPGTAPKLLIEGYYNRPSGVPDRFSGSKSGTSASLTITGLLPEDEGDYYCQSYDGTLSALFGGGTKLTVLG
notes: human IgG1, lambda
B2: 320-235 (antibody, human IgG1, name in Kabat numbering, V domains shown)
VH: B1 VH
VL: B1 VL with A23T, D28Q
notes: human IgG1, lambda
B3: 320-231 (antibody, human IgG1, name in Kabat numbering, V domains shown)
VH: B1 VH
VL: B1 VL with A23T, S27W
notes: human IgG1, lambda
B4: 320-210 (antibody, human IgG1, name in Kabat numbering, V domains shown)
VH: B1 VH
VL: B1 VL with A23T, S25Q
notes: human IgG1, lambda
B5: 320-232 (antibody, human IgG1, name in Kabat numbering, V domains shown)
VH: B1 VH
VL: B1 VL with A23T, S27Y
notes: human IgG1, lambda
B6: 320-208 (antibody, human IgG1, name in Kabat numbering, V domains shown)
VH: B1 VH
VL: B1 VL with A23T, S24Y
notes: human IgG1, lambda
B7: 320-225 (antibody, human IgG1, name in Kabat numbering, V domains shown)
VH: B1 VH
VL: B1 VL with A23T, S27A
notes: human IgG1, lambda
B8: 320-224 (antibody, human IgG1, name in Kabat numbering, V domains shown)
VH: B1 VH
VL: B1 VL with A23T, S26Y
notes: human IgG1, lambda
B9: 320-217 (antibody, human IgG1, name in Kabat numbering, V domains shown)
VH: B1 VH
VL: B1 VL with A23T, S26A
notes: human IgG1, lambda
B10: 320-196 (antibody, human IgG1, name in Kabat numbering, V domains shown)
VH: B1 VH
VL: B1 VL with A23H
notes: human IgG1, lambda
B11: 320-234 (antibody, human IgG1, name in Kabat numbering, V domains shown)
VH: B1 VH
VL: B1 VL with A23T, D28S
notes: human IgG1, lambda
B12: 320-206 (antibody, human IgG1, name in Kabat numbering, V domains shown)
VH: B1 VH
VL: B1 VL with A23T, S24L
notes: human IgG1, lambda
B13: 320-212 (antibody, human IgG1, name in Kabat numbering, V domains shown)
VH: B1 VH
VL: B1 VL with A23T, S25H
notes: human IgG1, lambda
B14: 320-222 (antibody, human IgG1, name in Kabat numbering, V domains shown)
VH: B1 VH
VL: B1 VL with A23T, S26L
notes: human IgG1, lambda
B15: 320-228 (antibody, human IgG1, name in Kabat numbering, V domains shown)
VH: B1 VH
VL: B1 VL with A23T, S27H
notes: human IgG1, lambda
B16: 320-227 (antibody, human IgG1, name in Kabat numbering, V domains shown)
VH: B1 VH
VL: B1 VL with A23T, S27D
notes: human IgG1, lambda
B17: 320-214 (antibody, human IgG1, name in Kabat numbering, V domains shown)
VH: B1 VH
VL: B1 VL with A23T, S25L
notes: human IgG1, lambda
B18: 320-216 (antibody, human IgG1, name in Kabat numbering, V domains shown)
VH: B1 VH
VL: B1 VL with A23T, S25Y
notes: human IgG1, lambda
B19: 320-204 (antibody, human IgG1, name in Kabat numbering, V domains shown)
VH: B1 VH
VL: B1 VL with A23T, S24H
notes: human IgG1, lambda
B20: 320-215 (antibody, human IgG1, name in Kabat numbering, V domains shown)
VH: B1 VH
VL: B1 VL with A23T, S25W
notes: human IgG1, lambda
B21: 320-230 (antibody, human IgG1, name in Kabat numbering, V domains shown)
VH: B1 VH
VL: B1 VL with A23T, S27L
notes: human IgG1, lambda
B22: 320-200 (antibody, human IgG1, name in Kabat numbering, V domains shown)
VH: B1 VH
VL: B1 VL with A23Y
notes: human IgG1, lambda
B23: 320-223 (antibody, human IgG1, name in Kabat numbering, V domains shown)
VH: B1 VH
VL: B1 VL with A23T, S26W
notes: human IgG1, lambda
B24: 320-195 (antibody, human IgG1, name in Kabat numbering, V domains shown)
VH: B1 VH
VL: B1 VL with A23D
notes: human IgG1, lambda
B25: 320-220 (antibody, human IgG1, name in Kabat numbering, V domains shown)
VH: B1 VH
VL: B1 VL with A23T, S26H
notes: human IgG1, lambda
B26: 320-238 (antibody, human IgG1, name in Kabat numbering, V domains shown)
VH: B1 VH
VL: B1 VL with A23T, D28L
notes: human IgG1, lambda

Numbering of substitutions follows the chain as printed.

One test deals with T1, human TL1A extracellular domain with …. Briefly: SPR run 2; supernatant on Protein A; TL1A 10 ug/mL; timepoint 220. An excerpt:
(§1) 1.5. Antibody expression and antigen binding as determined by SPR. Using a CM5 sensor chip (GE Healthcare) Protein A (Pierce) was coupled to the chip surface using an amine coupling kit (GE Healthcare). Protein A was coupled on flow cell 1 and 2 (or alternatively 3 and 4) using a BIACORE® T200. […] The amount of supernatant or purified protein (as well as the concentration) injected during the capture stage varied between runs and is specified in the header of the Tables 3-11. At the end of injection of the supernatant or purified antibody the change in response units was measured. This value was reported as Capture Level in Tables 3-11. […] The response units were measured prior to the end of the dissociation phase. […] The sensorgrams were double referenced (flow cell 2 is subtracted from flow cell 1 and a buffer blank). As there were a large number of antibody variants to screen, these were screened across different runs (Tables 3-11). […] A summary of the conditions used in each run is below:
(§2) 2.1. […] In some experiment the antibodies were purified using Protein A chromatography (See 1.4) and purified antibodies were used in BIACORE® (GE Healthcare) experiments.
Turning to B1, the “TL1A Binding Level (Late)” value worked out at 218 RU.

For the molecule B2, the “TL1A Binding Level (Late)” value stood at 236 RU.

B3: the “TL1A Binding Level (Late)” value is 243 RU.

Take B4: the “TL1A Binding Level (Late)” value stood at 202 RU.

Turning to B5, the “TL1A Binding Level (Late)” value was determined as 235 RU.

As to B6, the “TL1A Binding Level (Late)” value was found to be 199 RU.

Take B7: the “TL1A Binding Level (Late)” value came out at 243 RU.

Regarding B8, the “TL1A Binding Level (Late)” value was 153 RU.

On to B9, for which the “TL1A Binding Level (Late)” value amounted to 235 RU.

Turning to B10, the “TL1A Binding Level (Late)” value amounted to 228 RU.

Consider B11, for which the “TL1A Binding Level (Late)” value came to 239 RU.

Take B12: the “TL1A Binding Level (Late)” value was 235 RU.

For B13, the “TL1A Binding Level (Late)” value was 205 RU.

With B14, the “TL1A Binding Level (Late)” value amounted to 96 RU.

As to B15, the “TL1A Binding Level (Late)” value was determined as 235 RU.

B16: the “TL1A Binding Level (Late)” value is 218 RU.

Take B17: the “TL1A Binding Level (Late)” value is 196 RU.

On to B18, for which the “TL1A Binding Level (Late)” value stood at 147 RU.

For the molecule B19, the “TL1A Binding Level (Late)” value is 155 RU.

Turning to B20, the “TL1A Binding Level (Late)” value stood at 199 RU.

For the molecule B21, the “TL1A Binding Level (Late)” value stood at 223 RU.

Take B22: the “TL1A Binding Level (Late)” value amounted to 231 RU.

Consider B23, for which the “TL1A Binding Level (Late)” value was 66 RU.

Turning to B24, the “TL1A Binding Level (Late)” value stood at 227 RU.

As for B25, the “TL1A Binding Level (Late)” value worked out at 230 RU.

As for B26, the “TL1A Binding Level (Late)” value came out at 191 RU.

The next test shares this target. Briefly: SPR run 2; supernatant on Protein A; TL1A 10 ug/mL; timepoint 44.
Excerpt: as §1, §2
As to B1, the “TL1A Binding Level (Early)” value is 238 RU.

For the molecule B2, the “TL1A Binding Level (Early)” value stood at 256 RU.

Take B3: the “TL1A Binding Level (Early)” value came out at 271 RU.

For B4, the “TL1A Binding Level (Early)” value is 225 RU.

On to B5, for which the “TL1A Binding Level (Early)” value was found to be 261 RU.

For the molecule B6, the “TL1A Binding Level (Early)” value was 222 RU.

Take B7: the “TL1A Binding Level (Early)” value worked out at 267 RU.

In the case of B8, the “TL1A Binding Level (Early)” value amounted to 198 RU.

As to B9, the “TL1A Binding Level (Early)” value is 258 RU.

Consider B10, for which the “TL1A Binding Level (Early)” value worked out at 250 RU.

Turning to B11, the “TL1A Binding Level (Early)” value is 262 RU.

For the molecule B12, the “TL1A Binding Level (Early)” value was 257 RU.

Consider B13, for which the “TL1A Binding Level (Early)” value was determined as 226 RU.

As for B14, the “TL1A Binding Level (Early)” value came to 156 RU.

Consider B15, for which the “TL1A Binding Level (Early)” value amounted to 259 RU.

In the case of B16, the “TL1A Binding Level (Early)” value was found to be 242 RU.

In the case of B17, the “TL1A Binding Level (Early)” value was found to be 221 RU.

Turning to B18, the “TL1A Binding Level (Early)” value was 171 RU.

Consider B19, for which the “TL1A Binding Level (Early)” value is 193 RU.

B20: the “TL1A Binding Level (Early)” value turned out to be 220 RU.

With B21, the “TL1A Binding Level (Early)” value is 245 RU.

Regarding B22, the “TL1A Binding Level (Early)” value stood at 251 RU.

On to B23, for which the “TL1A Binding Level (Early)” value came out at 143 RU.

Turning to B24, the “TL1A Binding Level (Early)” value amounted to 249 RU.

B25: the “TL1A Binding Level (Early)” value came out at 253 RU.

In the case of B26, the “TL1A Binding Level (Early)” value was 221 RU.
